We go through 11 molecules from US20160009788A1 (UNITED STATES OF AMERICA AS REPRESENTED BY THE SECRETARY …, published 2016).

As a reminder, the Kd is the constant that tells how readily two partners part at equilibrium. Low values mean a tighter complex, high ones a looser complex. The term koff denotes the first-order rate constant of dissociation. Low readings indicate slow dissociation, high ones fast dissociation. As usually defined, the kon is the rate constant with which the complex forms. Lower therefore signals slower complex formation. What is called IC50 is the point on the concentration scale where inhibition reaches its midpoint.

For assay [1], the target named is MD145 virus-like particle (GII.4, capsid protein VP1) (Norovirus GII.4 strain MD145-12).
Assay [2] has the same target. The assay is described as follows: SPR (Biacore 1000), Fab on MD145 virus-like particle. For orientation: SPR reads the build-up and loss of mass on a sensor chip optically.
Assay [3] has as its target T1, Norwalk virus (NV, GI.1) recombinant virus-like particles (capsid protein VP1) (Norwalk virus, UniProt Q83884 1-530).
T1 sequence: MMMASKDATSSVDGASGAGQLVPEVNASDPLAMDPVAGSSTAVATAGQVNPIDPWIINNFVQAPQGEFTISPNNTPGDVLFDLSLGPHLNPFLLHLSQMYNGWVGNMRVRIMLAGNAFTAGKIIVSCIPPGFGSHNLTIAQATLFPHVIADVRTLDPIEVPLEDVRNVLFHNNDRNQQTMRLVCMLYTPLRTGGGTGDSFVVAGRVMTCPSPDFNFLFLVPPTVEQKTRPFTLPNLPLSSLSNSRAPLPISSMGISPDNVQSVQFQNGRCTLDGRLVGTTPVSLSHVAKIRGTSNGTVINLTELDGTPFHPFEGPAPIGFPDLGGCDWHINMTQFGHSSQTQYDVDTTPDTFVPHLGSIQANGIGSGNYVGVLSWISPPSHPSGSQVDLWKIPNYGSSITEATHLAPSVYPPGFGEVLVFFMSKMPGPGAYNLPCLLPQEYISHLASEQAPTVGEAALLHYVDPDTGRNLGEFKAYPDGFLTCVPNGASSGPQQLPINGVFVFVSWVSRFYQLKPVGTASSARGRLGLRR

In assay [4] the target is T2, bovine serum albumin (bovine, UniProt P02769 25-607).
T2 construct: Control antigen; also called BSA
T2 sequence (P02769 25-607 limits assumed): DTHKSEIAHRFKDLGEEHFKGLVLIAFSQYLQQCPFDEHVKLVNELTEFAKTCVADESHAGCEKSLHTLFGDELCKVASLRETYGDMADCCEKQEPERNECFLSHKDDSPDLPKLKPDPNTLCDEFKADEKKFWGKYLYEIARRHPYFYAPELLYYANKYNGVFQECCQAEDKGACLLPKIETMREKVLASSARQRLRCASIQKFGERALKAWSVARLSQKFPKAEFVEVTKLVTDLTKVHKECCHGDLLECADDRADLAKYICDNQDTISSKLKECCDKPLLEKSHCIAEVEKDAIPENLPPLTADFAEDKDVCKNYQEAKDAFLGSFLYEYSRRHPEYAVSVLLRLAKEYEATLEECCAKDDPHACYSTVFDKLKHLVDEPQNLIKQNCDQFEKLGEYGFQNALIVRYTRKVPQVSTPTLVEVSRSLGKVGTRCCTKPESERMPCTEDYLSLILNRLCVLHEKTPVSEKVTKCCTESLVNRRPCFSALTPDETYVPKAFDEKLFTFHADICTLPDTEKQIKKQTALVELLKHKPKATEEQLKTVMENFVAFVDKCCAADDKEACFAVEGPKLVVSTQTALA
The assay is described as follows: ELISA, antigen on the solid phase, soluble Fab.

Assay [5] concerns the target T2, bovine serum albumin. Briefly: ELISA, antigen coated directly on the plate. On the technique in general: ELISA stands for enzyme-linked immunosorbent assay.

B1: anti-NoV GII.4 mAb D4 (IgG) (antibody, V domains shown)
VH: EVQLVESGPGLVKPSETLSLTCAVSGASIRRANWWGWIRQAPGKGLEWLGSIFINAGTIYNPSLTGRVTVSADTSKNLFSLKLGSVTAADTAVYYCVKSYGDGDDNYNSFYYYMDVWGKGTSVIVSS
VL: DVVMTQSPSSLSASVGDRVTITCRASQDIRNNLAWYQHKPGKAPKLLIYYASKLQSGVPLRFSGSGSGTDYTLFISSLQPEDFATYYCQQYKTDTPYSFGQGTKVDIKR
With B1, in assay [1], the IC50 (read off the curve) was 1 µg/mL.

B2: anti-GII.4 NV Fab D4 (Fab, V domains shown)
VH: EVQLVESGPGLVKPSETLSLTCAVSGASIRRANWWGWIRQAPGKGLEWLGSIFINAGTIYNPSLTGRVTVSADTSKNLFSLKLGSVTAADTAVYYCVKSYGDGDDNYNSFYYYMDVWGKGTSVIVSS
VL: DVVMTQSPSSLSASVGDRVTITCRASQDIRNNLAWYQHKPGKAPKLLIYYASKLQSGVPLRFSGSGSGTDYTLFISSLQPEDFATYYCQQYKTDTPYSFGQGTKVDIKR
In assay [2], B2 returned a dissociation constant (Kd) of 0.121 nM, a dissociation rate constant (koff) of 0.000178 s⁻¹ and an association rate constant (kon) of 1.47e+06 M⁻¹ s⁻¹.

B3: anti-NV IgG G4 (antibody, V domains shown)
VH: EVQLEESGGGLVKPGGSLRLSCAASGFTFSHYVMYWVRQAPEKGLEWVSTISGSGSSTWYPDSVKGRFTVSRDNSKNTLYLQMNSLRGDDTAVYYCARLQGQLVYWGLGTLVTVS
VL: ELQMTQSPSTLSASVGDRVTITCRASQGISSWLAWYQQKPGRAPKLLIYKSSTLESGVPSRFSGSGSGTEFTLTISSLQPDDFATYFCQQYSSNPPLTFGGGTKVEIKR
As to B3, in assay [3], the concentration for half-maximal inhibition (IC50) was around 2.8 nM.

B4: anti-NV Fab F11 (Fab, V domains shown)
VH: EVQLVETGGSLVQPGGSLRLSCAASGFSVSIYHMSWVRQAPGKGLEWVSLLYSGGSTYYADSVKGRFTISRDNSKNTLYLQMNSLRAEDTAVYYCARDYSGSWVGDEARSYYYYYYMDVWGKGTTVTVS
VL: ELQVTQSPSSLSASVGDRVTITCQASQDISYYLNWYQQRPGKVPKLLIYSASYLHSGVPSRFSGSGSGTDFTLTISSLQPEDVATYYCQRTYNAPYTFGQGTKVEIKR
On to B4, for which the binding result in assay [4] was “no binding”.

B5: anti-GII.4 NV Fab C9 (Fab, V domains shown)
VH: EVQLEESGGVLVKPGGSLRLSCAASGFTFSSHAMHWVRQAPGKGLEWVAIINSGHRADYADSVKDRFTISRDNSKNTLYLQMDSLRPEDTAFYYCAREGDQQDVAD
VL: ELTQSPSTLSASVGDRVTITCRASEDIMSYLAWYQQKPAKAPRLLIYYASSLQSGVPSRFSGSGSGTEFTLTISSLQPEDFATYYCQQLHTFPITFGPGTRLDIKRT
As for B5, in assay [2], the dissociation constant (Kd) was 27.7 nM, the off-rate (koff) was 0.00382 s⁻¹ and the kon came out at 138000 M⁻¹ s⁻¹.

B6: anti-NV Fab E5 (Fab, V domains shown)
VH: EVQLEQSGGGLIKPGGSLRLSCAASGFTFTKYVMHWVRQAPEKGLQWVSAIGGSGGSAWYADSVKGRFTISRDNSKNTLYLQMNSLRAEDTAVYYCARDHARYSGYNSPHEVDSWGQGTLVAVS
VL: ELELTQSPSSLSASVGDRVTITCRASQGISNYLAWYQQKPGKVPKLLIYAASTLQSGVPSRFSGSGSGTDFTLTISSLQPEDVATYYCQKYNSAPLTFGGGTKVEIKR
notes: also called ES [sic]
As to B6, the binding result in assay [4] is listed as “no binding”.

B7: anti-GII.4 NV Fab B72 (Fab, V domains shown)
VH: EVQLEQSGAEVKKPGSSVKVSCKISGGTFSRHPISWVRQAPGQGLLWMGAIILRAGTTKYEQRFQGRITITADESTGTAYMELHSLTSEDTGLYFCATDRMGTFDELLFDSWGQGTLVTVSS
VL: ELQMTQSPASLSASVGDRVTITCRASQGIRNNLGWYQQKPGKPPKLLIYAASTLQSGVPSRFSGSGSGTGFTLTISSLQPEDFATYYCLQDYDFPLTFGGGTKVEIKR
In assay [2], B7 yielded an equilibrium dissociation constant (Kd) of 0.351 nM, a koff of 5.66e-05 s⁻¹ and an association rate constant (kon) of 161000 M⁻¹ s⁻¹.

B8: anti-NV Fab B7 (Fab, V domains shown)
VH: EVQLEESGGDLVQPGGSLTLSCAASGFTFSRYWMSWVRQAPGKGPEWVASIKKDGSETFYADSVKGRFIISRDIAKTSLYLQMNSLRADDTAVYYCLRAWYSSAYDFWGQGTLVTVS
VL: ELELTQSPSSLSASVGDRVTITCRASQSISNYLNWYQQKPGKAPNLLIYYASTLQSGVPSRFSGSGSGTDFTLTISSLQPEDFATYYCQHGYGAIAFGQGTRLEIKR
For B8, the binding result in assay [4] is “no binding”.

B9: anti-NV Fab D8 (Fab, V domains shown)
VH: EVQLEESGGGLVQPGGSLRVSCAASGFPFNGYWIHWVRQAPGKGLEWVSRVNSDGRITNFADSVMGRFTMSRDNAKSTVYLQMNSLRAEDTAMYYCSRGGYTGYPEGHWGQGTLVTVS
VL: ELQMTQSPSSLSAAVGDSVTITCRASQGISIHLAWYQQKPGKVPNLLIYAASTLQSGVPSRFSGSGSGTDFTLTINSLQPEVFATYYCQKYDSAPFTFGPGTKVDIKR
With B9, the binding result in assay [5] is listed as “no binding”.

B10: anti-NoV GII.4 mAb G3 (IgG) (antibody, V domains shown)
VH: EVQLEQSGGGLVKPGGSLRLSCAGSGFSFSAHTINWVRQAPGKGLEWVGFIRSQAQGGTREYAASVKGRIILSRDDSENSAYLQMNSLNTGDTAVYYCARDSSRGYYSYYLDVWGKGTTVTVSS
VL: ELTQSPSSLSASVGDRVTITCRASQGISNRLNWYQQKPGKAPKLLIYDASSLESGVPSRFSGSGSGTDFTLTISSQQPEDFATYYCQQFNSYPLTFGGGTKVEIKR
In the case of B10, in assay [1], the IC50 (read off the curve) is 1 µg/mL.

B11: anti-GII.4 NV Fab G3 (Fab, V domains shown)
VH: EVQLEQSGGGLVKPGGSLRLSCAGSGFSFSAHTINWVRQAPGKGLEWVGFIRSQAQGGTREYAASVKGRIILSRDDSENSAYLQMNSLNTGDTAVYYCARDSSRGYYSYYLDVWGKGTTVTVSS
VL: ELTQSPSSLSASVGDRVTITCRASQGISNRLNWYQQKPGKAPKLLIYDASSLESGVPSRFSGSGSGTDFTLTISSQQPEDFATYYCQQFNSYPLTFGGGTKVEIKR
With B11, in assay [2], the dissociation constant Kd came to 2.61 nM, the koff came to 0.000421 s⁻¹ and the on-rate (kon) was determined as 162000 M⁻¹ s⁻¹.
